Experimental findings from article PMC10957929 are described below.

Series [1] has as its target T1, GST-DRG9Nip (F267G) F267G (Oryza sativa ssp. japonica cv. Nipponbare) (UniProt Q69P58).
T1 sequence: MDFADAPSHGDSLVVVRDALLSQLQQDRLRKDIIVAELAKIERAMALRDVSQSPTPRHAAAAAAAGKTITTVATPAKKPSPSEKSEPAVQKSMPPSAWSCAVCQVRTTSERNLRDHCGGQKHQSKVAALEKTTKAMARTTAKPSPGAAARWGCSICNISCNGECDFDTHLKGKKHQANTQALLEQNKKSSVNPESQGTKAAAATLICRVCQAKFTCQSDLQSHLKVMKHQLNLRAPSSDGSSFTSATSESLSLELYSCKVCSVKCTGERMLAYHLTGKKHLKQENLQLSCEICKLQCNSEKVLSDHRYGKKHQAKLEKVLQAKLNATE
The experiment in a line: EMSA. The following applies: 20 mM Hepes pH 7.5, 20 mM KCl2 (so in the source), 1 mM MgCl2, 10 mM ZnCl2, 5 mM DTT, 10% glycerol, 0.1% NP-40, room temperature, 1 h; 6% native PAGE, 0.5x TBE. A general note: Mobility shift assays separate free from complexed probe on a gel.

The target of series [2] is T2, GST-DRG9Nip (N186S) N186S (Oryza sativa ssp. japonica cv. Nipponbare) (UniProt Q69P58).
T2 sequence: T1 sequence with N186S, G267F
Briefly: EMSA. As to conditions: 20 mM Hepes pH 7.5, 20 mM KCl2 (so in the source), 1 mM MgCl2, 10 mM ZnCl2, 5 mM DTT, 10% glycerol, 0.1% NP-40, room temperature, 1 h; 6% native PAGE, 0.5x TBE.

Numbering of substitutions follows the chain as printed.

Take “GGGCUCAAAUUAAUUAGCCAGUGAAAAAUCAAAUUACAGAGUUGCUUAAUUUUUUUACUAGUAGAACGCAACAGUAAAAAGAAUUAACAGCAGUGAAUUAUUAGUUAAUUAGCUAGGGAGUUGAAAUAGUUUAGCGGUCAUGCACUACUGAUUUUUAAUUAGUGCAGACAACGACCGCGUGUGUGUAUAUGCAUGUAUACCUUUUACUGUAUCUUCAGAUUGUGUAUAUAUAUCAUAUAUGUACAGGAAAAGAUUUAUAUAUCAUACAUAUUUUGUUGU [OsNCED4 3'-UTR RNA]”: the binding result was “binds more weakly” in series [1] and “binds” in series [2].
